Reference: patent US20210032299A1
Starred links: 1 amine or outer side, 2 acyl side, 3 side chain; linkers in the order of their positions; H or OH if unused. Non-standard residues stand in square brackets, D forms with d. Groups on a side chain read outwards from the residue. No end group written: not given here. *: point of attachment. C20 diacid = O=C(O)CCCCCCCCCCCCCCCCCCC(=O)*; αMePhe(2-F) = C[C@](N)(Cc1ccccc1F)C(=O)O; γGlu = O=C(O)[C@H](CCC(=O)[*:2])N[*:1]; 4Pal = N[C@@H](Cc1ccncc1)C(=O)O; αMeL = CC(C)C[C@](C)(N)C(=O)O; Orn = NCCC[C@H](N)C(=O)O; AEEA = NCCOCCOCC(=O)O; Aib = CC(C)(N)C(=O)O

T1: human glucose-dependent insulinotropic polypeptide (GIP) receptor (human), P48546
T1 chain: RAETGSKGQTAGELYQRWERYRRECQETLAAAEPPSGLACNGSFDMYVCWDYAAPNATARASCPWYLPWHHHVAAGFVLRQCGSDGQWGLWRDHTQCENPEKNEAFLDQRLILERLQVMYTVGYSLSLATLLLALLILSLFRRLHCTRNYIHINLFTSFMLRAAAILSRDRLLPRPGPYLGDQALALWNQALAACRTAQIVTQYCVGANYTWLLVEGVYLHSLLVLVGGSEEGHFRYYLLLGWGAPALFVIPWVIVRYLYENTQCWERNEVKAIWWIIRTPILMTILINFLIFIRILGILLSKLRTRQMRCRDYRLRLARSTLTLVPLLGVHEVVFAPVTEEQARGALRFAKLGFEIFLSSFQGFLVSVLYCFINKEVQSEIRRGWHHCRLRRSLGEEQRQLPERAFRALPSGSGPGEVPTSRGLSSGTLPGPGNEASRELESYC

B1: Example 113 (peptide)
peptide: Y[Aib]EGT[αMePhe(2-F)]ISDYSIALDKIHQ[Aib]DFVE[4Pal]K([AEEA-AEEA-γGlu-C20 diacid])LEAGPSSGAPPPS-NH2
modifications: N-terminus assumed
SMILES: CC[C@H](C)[C@H](NC(=O)[C@H](CO)NC(=O)[C@H](Cc1ccc(O)cc1)NC(=O)[C@H](CC(=O)O)NC(=O)[C@H](CO)NC(=O)[C@@H](NC(=O)[C@](C)(Cc1ccccc1F)NC(=O)[C@@H](NC(=O)CNC(=O)[C@H](CCC(=O)O)NC(=O)C(C)(C)NC(=O)[C@@H](N)Cc1ccc(O)cc1)[C@@H](C)O)[C@@H](C)CC)C(=O)N[C@@H](C)C(=O)N[C@@H](CC(C)C)C(=O)N[C@@H](CC(=O)O)C(=O)N[C@@H](CCCCN)C(=O)N[C@H](C(=O)N[C@@H](Cc1c[nH]cn1)C(=O)N[C@@H](CCC(N)=O)C(=O)NC(C)(C)C(=O)N[C@@H](CC(=O)O)C(=O)N[C@@H](Cc1ccccc1)C(=O)N[C@H](C(=O)N[C@@H](CCC(=O)O)C(=O)N[C@@H](Cc1ccncc1)C(=O)N[C@@H](CCCCNC(=O)COCCOCCNC(=O)COCCOCCNC(=O)CC[C@H](NC(=O)CCCCCCCCCCCCCCCCCCC(=O)O)C(=O)O)C(=O)N[C@@H](CC(C)C)C(=O)N[C@@H](CCC(=O)O)C(=O)N[C@@H](C)C(=O)NCC(=O)N1CCC[C@H]1C(=O)N[C@@H](CO)C(=O)N[C@@H](CO)C(=O)NCC(=O)N[C@@H](C)C(=O)N1CCC[C@H]1C(=O)N1CCC[C@H]1C(=O)N1CCC[C@H]1C(=O)N[C@@H](CO)C(N)=O)C(C)C)[C@@H](C)CC
B2: Example 116 (peptide)
peptide: Y[Aib]EGTFISDYSI[αMeL]LD[Orn]IRQ[Aib]DFVEYK([AEEA-AEEA-γGlu-C20 diacid])LEGGPSSGAPPPS-NH2
modifications: N-terminus assumed
SMILES: CC[C@H](C)[C@H](NC(=O)[C@H](CCCN)NC(=O)[C@H](CC(=O)O)NC(=O)[C@H](CC(C)C)NC(=O)[C@](C)(CC(C)C)NC(=O)[C@@H](NC(=O)[C@H](CO)NC(=O)[C@H](Cc1ccc(O)cc1)NC(=O)[C@H](CC(=O)O)NC(=O)[C@H](CO)NC(=O)[C@@H](NC(=O)[C@H](Cc1ccccc1)NC(=O)[C@@H](NC(=O)CNC(=O)[C@H](CCC(=O)O)NC(=O)C(C)(C)NC(=O)[C@@H](N)Cc1ccc(O)cc1)[C@@H](C)O)[C@@H](C)CC)[C@@H](C)CC)C(=O)N[C@@H](CCCNC(=N)N)C(=O)N[C@@H](CCC(N)=O)C(=O)NC(C)(C)C(=O)N[C@@H](CC(=O)O)C(=O)N[C@@H](Cc1ccccc1)C(=O)N[C@H](C(=O)N[C@@H](CCC(=O)O)C(=O)N[C@@H](Cc1ccc(O)cc1)C(=O)N[C@@H](CCCCNC(=O)COCCOCCNC(=O)COCCOCCNC(=O)CC[C@H](NC(=O)CCCCCCCCCCCCCCCCCCC(=O)O)C(=O)O)C(=O)N[C@@H](CC(C)C)C(=O)N[C@@H](CCC(=O)O)C(=O)NCC(=O)NCC(=O)N1CCC[C@H]1C(=O)N[C@@H](CO)C(=O)N[C@@H](CO)C(=O)NCC(=O)N[C@@H](C)C(=O)N1CCC[C@H]1C(=O)N1CCC[C@H]1C(=O)N1CCC[C@H]1C(=O)N[C@@H](CO)C(N)=O)C(C)C
B3: Example 115 (peptide)
peptide: Y[Aib]EGTFISDYSI[αMeL]LDKIRQ[Aib]DFVEYK([AEEA-AEEA-γGlu-C20 diacid])LEGGPSSGAPPPS-NH2
modifications: N-terminus assumed
SMILES: CC[C@H](C)[C@H](NC(=O)[C@H](CCCCN)NC(=O)[C@H](CC(=O)O)NC(=O)[C@H](CC(C)C)NC(=O)[C@](C)(CC(C)C)NC(=O)[C@@H](NC(=O)[C@H](CO)NC(=O)[C@H](Cc1ccc(O)cc1)NC(=O)[C@H](CC(=O)O)NC(=O)[C@H](CO)NC(=O)[C@@H](NC(=O)[C@H](Cc1ccccc1)NC(=O)[C@@H](NC(=O)CNC(=O)[C@H](CCC(=O)O)NC(=O)C(C)(C)NC(=O)[C@@H](N)Cc1ccc(O)cc1)[C@@H](C)O)[C@@H](C)CC)[C@@H](C)CC)C(=O)N[C@@H](CCCNC(=N)N)C(=O)N[C@@H](CCC(N)=O)C(=O)NC(C)(C)C(=O)N[C@@H](CC(=O)O)C(=O)N[C@@H](Cc1ccccc1)C(=O)N[C@H](C(=O)N[C@@H](CCC(=O)O)C(=O)N[C@@H](Cc1ccc(O)cc1)C(=O)N[C@@H](CCCCNC(=O)COCCOCCNC(=O)COCCOCCNC(=O)CC[C@H](NC(=O)CCCCCCCCCCCCCCCCCCC(=O)O)C(=O)O)C(=O)N[C@@H](CC(C)C)C(=O)N[C@@H](CCC(=O)O)C(=O)NCC(=O)NCC(=O)N1CCC[C@H]1C(=O)N[C@@H](CO)C(=O)N[C@@H](CO)C(=O)NCC(=O)N[C@@H](C)C(=O)N1CCC[C@H]1C(=O)N1CCC[C@H]1C(=O)N1CCC[C@H]1C(=O)N[C@@H](CO)C(N)=O)C(C)C
B4: Example 106 (peptide)
peptide: Y[Aib]EGTFISDYSI[αMeL]LD[Orn]IHQ[Aib]EFVEYK([AEEA-AEEA-γGlu-C20 diacid])LEQGPSSGAPPPS-NH2
modifications: N-terminus assumed
SMILES: CC[C@H](C)[C@H](NC(=O)[C@H](CCCN)NC(=O)[C@H](CC(=O)O)NC(=O)[C@H](CC(C)C)NC(=O)[C@](C)(CC(C)C)NC(=O)[C@@H](NC(=O)[C@H](CO)NC(=O)[C@H](Cc1ccc(O)cc1)NC(=O)[C@H](CC(=O)O)NC(=O)[C@H](CO)NC(=O)[C@@H](NC(=O)[C@H](Cc1ccccc1)NC(=O)[C@@H](NC(=O)CNC(=O)[C@H](CCC(=O)O)NC(=O)C(C)(C)NC(=O)[C@@H](N)Cc1ccc(O)cc1)[C@@H](C)O)[C@@H](C)CC)[C@@H](C)CC)C(=O)N[C@@H](Cc1c[nH]cn1)C(=O)N[C@@H](CCC(N)=O)C(=O)NC(C)(C)C(=O)N[C@@H](CCC(=O)O)C(=O)N[C@@H](Cc1ccccc1)C(=O)N[C@H](C(=O)N[C@@H](CCC(=O)O)C(=O)N[C@@H](Cc1ccc(O)cc1)C(=O)N[C@@H](CCCCNC(=O)COCCOCCNC(=O)COCCOCCNC(=O)CC[C@H](NC(=O)CCCCCCCCCCCCCCCCCCC(=O)O)C(=O)O)C(=O)N[C@@H](CC(C)C)C(=O)N[C@@H](CCC(=O)O)C(=O)N[C@@H](CCC(N)=O)C(=O)NCC(=O)N1CCC[C@H]1C(=O)N[C@@H](CO)C(=O)N[C@@H](CO)C(=O)NCC(=O)N[C@@H](C)C(=O)N1CCC[C@H]1C(=O)N1CCC[C@H]1C(=O)N1CCC[C@H]1C(=O)N[C@@H](CO)C(N)=O)C(C)C
B5: Example 107 (peptide)
peptide: Y[Aib]EGTFISDYSI[αMeL]LD[Orn]IHQ[Aib]EFVEYK([AEEA-AEEA-γGlu-C20 diacid])LEGGPSSGAPPPS-NH2
modifications: N-terminus assumed
SMILES: CC[C@H](C)[C@H](NC(=O)[C@H](CCCN)NC(=O)[C@H](CC(=O)O)NC(=O)[C@H](CC(C)C)NC(=O)[C@](C)(CC(C)C)NC(=O)[C@@H](NC(=O)[C@H](CO)NC(=O)[C@H](Cc1ccc(O)cc1)NC(=O)[C@H](CC(=O)O)NC(=O)[C@H](CO)NC(=O)[C@@H](NC(=O)[C@H](Cc1ccccc1)NC(=O)[C@@H](NC(=O)CNC(=O)[C@H](CCC(=O)O)NC(=O)C(C)(C)NC(=O)[C@@H](N)Cc1ccc(O)cc1)[C@@H](C)O)[C@@H](C)CC)[C@@H](C)CC)C(=O)N[C@@H](Cc1c[nH]cn1)C(=O)N[C@@H](CCC(N)=O)C(=O)NC(C)(C)C(=O)N[C@@H](CCC(=O)O)C(=O)N[C@@H](Cc1ccccc1)C(=O)N[C@H](C(=O)N[C@@H](CCC(=O)O)C(=O)N[C@@H](Cc1ccc(O)cc1)C(=O)N[C@@H](CCCCNC(=O)COCCOCCNC(=O)COCCOCCNC(=O)CC[C@H](NC(=O)CCCCCCCCCCCCCCCCCCC(=O)O)C(=O)O)C(=O)N[C@@H](CC(C)C)C(=O)N[C@@H](CCC(=O)O)C(=O)NCC(=O)NCC(=O)N1CCC[C@H]1C(=O)N[C@@H](CO)C(=O)N[C@@H](CO)C(=O)NCC(=O)N[C@@H](C)C(=O)N1CCC[C@H]1C(=O)N1CCC[C@H]1C(=O)N1CCC[C@H]1C(=O)N[C@@H](CO)C(N)=O)C(C)C
B6: Example 112 (peptide)
peptide: Y[Aib]EGT[αMePhe(2-F)]ISDYSIALDKIHQ[Aib]DFVE[4Pal]K([AEEA-AEEA-γGlu-C20 diacid])LEGGPSSGAPPPS-NH2
modifications: N-terminus assumed
SMILES: CC[C@H](C)[C@H](NC(=O)[C@H](CO)NC(=O)[C@H](Cc1ccc(O)cc1)NC(=O)[C@H](CC(=O)O)NC(=O)[C@H](CO)NC(=O)[C@@H](NC(=O)[C@](C)(Cc1ccccc1F)NC(=O)[C@@H](NC(=O)CNC(=O)[C@H](CCC(=O)O)NC(=O)C(C)(C)NC(=O)[C@@H](N)Cc1ccc(O)cc1)[C@@H](C)O)[C@@H](C)CC)C(=O)N[C@@H](C)C(=O)N[C@@H](CC(C)C)C(=O)N[C@@H](CC(=O)O)C(=O)N[C@@H](CCCCN)C(=O)N[C@H](C(=O)N[C@@H](Cc1c[nH]cn1)C(=O)N[C@@H](CCC(N)=O)C(=O)NC(C)(C)C(=O)N[C@@H](CC(=O)O)C(=O)N[C@@H](Cc1ccccc1)C(=O)N[C@H](C(=O)N[C@@H](CCC(=O)O)C(=O)N[C@@H](Cc1ccncc1)C(=O)N[C@@H](CCCCNC(=O)COCCOCCNC(=O)COCCOCCNC(=O)CC[C@H](NC(=O)CCCCCCCCCCCCCCCCCCC(=O)O)C(=O)O)C(=O)N[C@@H](CC(C)C)C(=O)N[C@@H](CCC(=O)O)C(=O)NCC(=O)NCC(=O)N1CCC[C@H]1C(=O)N[C@@H](CO)C(=O)N[C@@H](CO)C(=O)NCC(=O)N[C@@H](C)C(=O)N1CCC[C@H]1C(=O)N1CCC[C@H]1C(=O)N1CCC[C@H]1C(=O)N[C@@H](CO)C(N)=O)C(C)C)[C@@H](C)CC

Target: T1, human glucose-dependent insulinotropic …
Assay: SPA, displacement of [125I]-GIP from hGIPR membranes, 0.1% bacitracin

In order of rising Ki:
1. B5  0.0722 nM
2. B6  0.0742 nM
3. B4  0.0918 nM
4. B3  0.0997 nM
5. B1  0.108 nM
6. B2  0.166 nM

The binders below were run against human glucagon receptor (human), P47871 (assay: SPA, displacement of [125I]-Gcg from hGcgR membranes, 0.1% bacitracin).
Chain of human glucagon receptor (human), P47871 (P47871 26-477): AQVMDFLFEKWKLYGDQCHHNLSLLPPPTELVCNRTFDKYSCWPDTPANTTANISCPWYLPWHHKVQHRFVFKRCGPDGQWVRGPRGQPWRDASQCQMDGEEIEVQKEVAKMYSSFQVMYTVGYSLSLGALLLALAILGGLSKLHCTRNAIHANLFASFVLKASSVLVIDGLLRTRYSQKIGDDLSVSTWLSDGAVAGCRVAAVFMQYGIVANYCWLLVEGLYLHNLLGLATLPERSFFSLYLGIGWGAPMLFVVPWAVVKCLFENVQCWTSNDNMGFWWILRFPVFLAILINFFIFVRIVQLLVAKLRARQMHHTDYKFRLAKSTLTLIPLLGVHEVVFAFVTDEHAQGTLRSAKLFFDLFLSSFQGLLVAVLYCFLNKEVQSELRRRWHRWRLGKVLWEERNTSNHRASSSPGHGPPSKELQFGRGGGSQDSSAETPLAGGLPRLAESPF

In order of rising Ki:
1. B2  178 nM
2. B6  257 nM
3. B4  304 nM
4. B5  347 nM
5. B3  373 nM
6. B1  821 nM
